For 34 variants, fraction ligated results are on record in the supplement of paper PMC6755084.

To fix the notation:
B1: F1*; the commonest letter at each place (parent)
chain: GAGACCGCAACTGAAAAGTTGTTATCACTTGTCGTAAGACACTTTGGATGGGTTGAAGTTCTGCACGTAGAAGCAAAAGGC

In the series the parent is B1. The series can be described thus: fraction ligated after 30 min (ligated reads / total reads); higher = more ligase activity. Particulars: with F1*sub RNA substrate (template-directed ligation), 42 °C. In a few lines: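 Oligo-pool templates underwent PCR amplification, T7 transcription and gel purification to yield ribozyme variants. Gel-separated ligated and unligated bands were converted to complementary DNA with barcoded primers and sequenced on a MiSeq, keeping core bases of quality ≥20. The ratio of ligated reads to total reads gave the fraction ligated for every variant.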
As to GAGACCGCAACTGAAAAGTTGTTATCACTTGTCGTAAGAGACTTAGGATGGGTTGAAGTTCTGCACGTAGAAGCAAAAGGC [C40G T45A], the fraction ligated is 0.688.
Consider GAGACCGCAACTGAAAAGTTGTTATCACTTGTCGTAAGAGACTTCGGATGGGTTGAAGTTCTGCACGTAGAAGCAAAAGGC [C40G T45C], for which the fraction ligated came to 0.669.
For the variant GAGACCGCAACTGAAAAGTTGTTATCACTTGTCGTAAGAGACTTGGGATGGGTTGAAGTTCTGCACGTAGAAGCAAAAGGC [C40G T45G], the fraction ligated came out at 0.0145.
In the case of GAGACCGCAACTGAAAAGTTGTTATCACTTGTCGTAAGATACTTTGGCTGGGTTGAAGTTCTGCACGTAGAAGCAAAAGGC [C40T A48C], the fraction ligated was determined as 0.763.
In the case of GAGACCGCAACTGAAAAGTTGTTATCACTTGTCGTAAGATACTTTGGGTGGGTTGAAGTTCTGCACGTAGAAGCAAAAGGC [C40T A48G], the fraction ligated came to 0.784.
GAGACCGCAACTGAAAAGTTGTTATCACTTGTCGTAAGATACTTTGGTTGGGTTGAAGTTCTGCACGTAGAAGCAAAAGGC [C40T A48T]: the fraction ligated came out at 0.798.
In the case of GAGACCGCAACTGAAAAGTTGTTATCACTTGTCGTAAGAGACTTTGGATCGGTTGAAGTTCTGCACGTAGAAGCAAAAGGC [C40G G50C], the fraction ligated amounted to 0.134.
Turning to GAGACCGCAACTGAAAAGTTGTTATCACTTGTCGTAAGAGACTTTGGATAGGTTGAAGTTCTGCACGTAGAAGCAAAAGGC [C40G G50A], the fraction ligated stood at 0.262.
Next, GAGACCGCAACTGAAAAGTTGTTATCACTTGTCGTAAGAGACTTTGGATTGGTTGAAGTTCTGCACGTAGAAGCAAAAGGC [C40G G50T]: 0.548; GAGACCGCAACTGAAAAGTTGTTATCACTTGTCGTAAGATACATTGGATGGGTTGAAGTTCTGCACGTAGAAGCAAAAGGC [C40T T43A]: 0.819.
Take GAGACCGCAACTGAAAAGTTGTTATCACTTGTCGTAAGATACGTTGGATGGGTTGAAGTTCTGCACGTAGAAGCAAAAGGC [C40T T43G]: the fraction ligated turned out to be 0.782.
With GAGACCGCAACTGAAAAGTTGTTATCACTTGTCGTAAGATACCTTGGATGGGTTGAAGTTCTGCACGTAGAAGCAAAAGGC [C40T T43C] the figure was 0.795.
With GAGACCGCAACTGAAAAGTTGTTATCACTTGTCGTAAGAGACTTTGCATGGGTTGAAGTTCTGCACGTAGAAGCAAAAGGC [C40G G47C], the fraction ligated was found to be 0.147.
In the case of GAGACCGCAACTGAAAAGTTGTTATCACTTGTCGTAAGAGACTTTGTATGGGTTGAAGTTCTGCACGTAGAAGCAAAAGGC [C40G G47T], the fraction ligated came out at 0.438.
For GAGACCGCAACTGAAAAGTTGTTATCACTTGTCGTAAGAGACTTTGAATGGGTTGAAGTTCTGCACGTAGAAGCAAAAGGC [C40G G47A], the fraction ligated worked out at 0.783.
As for GAGACCGCAACTGAAAAGTTGTTATCACTTGTCGTAAGATACTTTCGATGGGTTGAAGTTCTGCACGTAGAAGCAAAAGGC [C40T G46C], the fraction ligated is 0.79.
As for GAGACCGCAACTGAAAAGTTGTTATCACTTGTCGTAAGATACTTTTGATGGGTTGAAGTTCTGCACGTAGAAGCAAAAGGC [C40T G46T], the fraction ligated stood at 0.792.
With GAGACCGCAACTGAAAAGTTGTTATCACTTGTCGTAAGATACTTTAGATGGGTTGAAGTTCTGCACGTAGAAGCAAAAGGC [C40T G46A] the figure was 0.809; with GAGACCGCAACTGAAAAGTTGTTATCACTTGTCGTAAGATACTTGGGATGGGTTGAAGTTCTGCACGTAGAAGCAAAAGGC [C40T T45G], 0.195.
Consider GAGACCGCAACTGAAAAGTTGTTATCACTTGTCGTAAGATACTTAGGATGGGTTGAAGTTCTGCACGTAGAAGCAAAAGGC [C40T T45A], for which the fraction ligated is 0.791.
Take GAGACCGCAACTGAAAAGTTGTTATCACTTGTCGTAAGATACTTCGGATGGGTTGAAGTTCTGCACGTAGAAGCAAAAGGC [C40T T45C]: the fraction ligated worked out at 0.77.
With GAGACCGCAACTGAAAAGTTGTTATCACTTGTCGTAAGATACTTTGGATGGGTTAAAGTTCTGCACGTAGAAGCAAAAGGC [C40T G55A] the figure was 0.841.
Consider GAGACCGCAACTGAAAAGTTGTTATCACTTGTCGTAAGATACTTTGGATGGGTTCAAGTTCTGCACGTAGAAGCAAAAGGC [C40T G55C], for which the fraction ligated was 0.782.
GAGACCGCAACTGAAAAGTTGTTATCACTTGTCGTAAGATACTTTGGATGGGTTTAAGTTCTGCACGTAGAAGCAAAAGGC [C40T G55T]: the fraction ligated came to 0.816.
Take GAGACCGCAACTGAAAAGTTGTTATCACTTGTCGTAAGAGACTTTGGATGGGTTGATGTTCTGCACGTAGAAGCAAAAGGC [C40G A57T]: the fraction ligated is 0.79.
For the variant GAGACCGCAACTGAAAAGTTGTTATCACTTGTCGTAAGAGACTCTGGATGGGTTGAAGTTCTGCACGTAGAAGCAAAAGGC [C40G T44C], the fraction ligated was 0.775.
On to GAGACCGCAACTGAAAAGTTGTTATCACTTGTCGTAAGAGACTATGGATGGGTTGAAGTTCTGCACGTAGAAGCAAAAGGC [C40G T44A], for which the fraction ligated stood at 0.841.
In the case of GAGACCGCAACTGAAAAGTTGTTATCACTTGTCGTAAGAGACTGTGGATGGGTTGAAGTTCTGCACGTAGAAGCAAAAGGC [C40G T44G], the fraction ligated was found to be 0.807.
As to GAGACCGCAACTGAAAAGTTGTTATCACTTGTCGTAAGAGACGTTGGATGGGTTGAAGTTCTGCACGTAGAAGCAAAAGGC [C40G T43G], the fraction ligated was found to be 0.819.
As to GAGACCGCAACTGAAAAGTTGTTATCACTTGTCGTAAGAGACATTGGATGGGTTGAAGTTCTGCACGTAGAAGCAAAAGGC [C40G T43A], the fraction ligated is 0.817.
Consider GAGACCGCAACTGAAAAGTTGTTATCACTTGTCGTAAGAGACCTTGGATGGGTTGAAGTTCTGCACGTAGAAGCAAAAGGC [C40G T43C], for which the fraction ligated was 0.811.
Take GAGACCGCAACTGAAAAGTTGTTATCACTTGTCGTAAGATACTTTGCATGGGTTGAAGTTCTGCACGTAGAAGCAAAAGGC [C40T G47C]: the fraction ligated came to 0.163.
As to GAGACCGCAACTGAAAAGTTGTTATCACTTGTCGTAAGATACTTTGAATGGGTTGAAGTTCTGCACGTAGAAGCAAAAGGC [C40T G47A], the fraction ligated was 0.798.
Consider GAGACCGCAACTGAAAAGTTGTTATCACTTGTCGTAAGATACTTTGTATGGGTTGAAGTTCTGCACGTAGAAGCAAAAGGC [C40T G47T], for which the fraction ligated stood at 0.197.
